US20240092841A1

What was measured:
Assay in all cases: co-IP with agarose-bound AvFc from A549 whole-cell lysate, mass spectrometry
Agrin (human) = Agrin (human) (UniProt O00468)
Attractin (human) = Attractin (human) (UniProt O75882)
CD109 antigen (human) = CD109 antigen (human) (UniProt Q6YHK3)
[1] = target: Cation-independent mannose-6-phosphate receptor (human) (UniProt P11717)
[2] = target: Cell cycle control protein 50A (human) (UniProt Q9NV96)
[3] = target: Contactin-associated protein-like 3 (human) (UniProt Q9BZ76)
[4] = target: Endothelial protein C receptor (human) (UniProt Q9UNN8)
Erlin-1 (human) = Erlin-1 (human) (UniProt O75477)
Erlin-2 (human) = Erlin-2 (human) (UniProt O94905)
[5] = target: Galectin-3-binding protein (human) (UniProt Q08380)
Integrin alpha-1 (human) = Integrin alpha-1 (human) (UniProt P56199)
Integrin alpha-2 (human) = Integrin alpha-2 (human) (UniProt P17301)
Integrin alpha-3 (human) = Integrin alpha-3 (human) (UniProt P26006)
Integrin alpha-5 (human) = Integrin alpha-5 (human) (UniProt P08648)
Integrin alpha-V (human) = Integrin alpha-V (human) (UniProt P06756)
Integrin beta-5 (human) = Integrin beta-5 (human) (UniProt P18084)
[6] = target: Isoform 6 of Myoferlin (human) (UniProt Q9NZM1)
[7] = target: Laminin subunit beta-1 (human) (UniProt P07942)
[8] = target: Laminin subunit beta-2 (human) (UniProt P55268)
[9] = target: Metal transporter CNNM4 (human) (UniProt Q6P4Q7)
Mucin-5AC (human) = Mucin-5AC (human) (UniProt P98088)
Mucin-5B (human) = Mucin-5B (human) (UniProt Q9HC84)
[10] = target: Multidrug resistance-associated protein 1 (human) (UniProt P33527)
[11] = target: Neutral amino acid transporter B (0) (human) (UniProt Q15758)
Plexin-B2 (human) = Plexin-B2 (human) (UniProt O15031)
[12] = target: Prolow-density lipoprotein receptor-related protein 1 (human) (UniProt Q07954)
[13] = target: Protocadherin Fat 1 (human) (UniProt Q14517)
[14] = target: Scavenger receptor class B member 1 (human) (UniProt Q8WTV0)
[15] = target: Sodium/potassium-transporting ATPase subunit beta-1 (human) (UniProt P05026)
[16] = target: Sortilin-related receptor (human) (UniProt Q92673)
[17] = target: Spectrin beta chain, non-erythrocytic 1 (human) (UniProt Q01082)
[18] = target: T-complex protein 1 subunit theta (human) (UniProt P50990)
[19] = target: Tetratricopeptide repeat protein 13 (human) (UniProt Q8NBP0)
[20] = target: Tetratricopeptide repeat protein 17 (human) (UniProt Q96AE7)
[21] = target: Transferrin receptor protein 1 (human) (UniProt P02786)
[22] = target: Transmembrane and TPR repeat-containing protein 3 (human) (UniProt Q6ZXV5)
[23] = target: Transmembrane protein 131 (human) (UniProt Q92545)
[24] = target: Transmembrane protein 2 (human) (UniProt Q9UHN6)
[25] = target: Tropomyosin alpha-3 chain (human) (UniProt P06753)

Chain of UniProt O75882 (O75882 84-1429 limits assumed): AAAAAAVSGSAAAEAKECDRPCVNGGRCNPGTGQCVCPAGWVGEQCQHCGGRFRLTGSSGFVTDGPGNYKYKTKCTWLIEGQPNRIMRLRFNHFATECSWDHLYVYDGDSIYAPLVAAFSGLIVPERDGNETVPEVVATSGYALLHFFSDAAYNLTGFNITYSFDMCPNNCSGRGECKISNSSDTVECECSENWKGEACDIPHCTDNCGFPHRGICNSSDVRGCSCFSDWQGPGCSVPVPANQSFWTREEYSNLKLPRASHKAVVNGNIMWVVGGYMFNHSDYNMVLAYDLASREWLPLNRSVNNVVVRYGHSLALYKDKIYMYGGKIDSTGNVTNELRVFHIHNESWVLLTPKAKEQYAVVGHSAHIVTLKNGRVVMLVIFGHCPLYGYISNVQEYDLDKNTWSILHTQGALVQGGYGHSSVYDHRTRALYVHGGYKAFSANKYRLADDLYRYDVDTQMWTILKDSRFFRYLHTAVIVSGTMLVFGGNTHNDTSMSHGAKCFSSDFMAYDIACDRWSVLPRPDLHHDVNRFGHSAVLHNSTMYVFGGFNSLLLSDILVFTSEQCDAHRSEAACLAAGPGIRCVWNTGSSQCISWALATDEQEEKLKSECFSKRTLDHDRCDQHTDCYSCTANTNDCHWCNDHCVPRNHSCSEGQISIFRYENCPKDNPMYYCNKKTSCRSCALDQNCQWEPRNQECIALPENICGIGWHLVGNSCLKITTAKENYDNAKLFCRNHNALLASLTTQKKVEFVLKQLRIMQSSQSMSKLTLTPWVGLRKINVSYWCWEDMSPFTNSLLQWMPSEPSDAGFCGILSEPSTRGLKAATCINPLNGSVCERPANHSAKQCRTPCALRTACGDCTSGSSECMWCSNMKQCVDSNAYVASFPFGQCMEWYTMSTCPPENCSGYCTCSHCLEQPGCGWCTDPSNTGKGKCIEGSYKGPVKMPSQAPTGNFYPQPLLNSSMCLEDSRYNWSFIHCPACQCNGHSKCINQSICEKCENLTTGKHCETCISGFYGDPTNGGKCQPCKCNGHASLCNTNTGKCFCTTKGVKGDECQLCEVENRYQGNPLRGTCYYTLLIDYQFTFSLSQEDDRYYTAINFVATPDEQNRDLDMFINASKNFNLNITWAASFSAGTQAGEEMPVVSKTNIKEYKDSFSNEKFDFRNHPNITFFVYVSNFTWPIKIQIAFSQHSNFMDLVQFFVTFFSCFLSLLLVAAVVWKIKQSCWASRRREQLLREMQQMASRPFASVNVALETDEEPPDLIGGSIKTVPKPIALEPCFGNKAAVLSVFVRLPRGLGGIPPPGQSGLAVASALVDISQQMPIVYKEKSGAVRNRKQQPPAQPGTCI
Chain of UniProt Q01082 (Q01082 2-2364 limits assumed): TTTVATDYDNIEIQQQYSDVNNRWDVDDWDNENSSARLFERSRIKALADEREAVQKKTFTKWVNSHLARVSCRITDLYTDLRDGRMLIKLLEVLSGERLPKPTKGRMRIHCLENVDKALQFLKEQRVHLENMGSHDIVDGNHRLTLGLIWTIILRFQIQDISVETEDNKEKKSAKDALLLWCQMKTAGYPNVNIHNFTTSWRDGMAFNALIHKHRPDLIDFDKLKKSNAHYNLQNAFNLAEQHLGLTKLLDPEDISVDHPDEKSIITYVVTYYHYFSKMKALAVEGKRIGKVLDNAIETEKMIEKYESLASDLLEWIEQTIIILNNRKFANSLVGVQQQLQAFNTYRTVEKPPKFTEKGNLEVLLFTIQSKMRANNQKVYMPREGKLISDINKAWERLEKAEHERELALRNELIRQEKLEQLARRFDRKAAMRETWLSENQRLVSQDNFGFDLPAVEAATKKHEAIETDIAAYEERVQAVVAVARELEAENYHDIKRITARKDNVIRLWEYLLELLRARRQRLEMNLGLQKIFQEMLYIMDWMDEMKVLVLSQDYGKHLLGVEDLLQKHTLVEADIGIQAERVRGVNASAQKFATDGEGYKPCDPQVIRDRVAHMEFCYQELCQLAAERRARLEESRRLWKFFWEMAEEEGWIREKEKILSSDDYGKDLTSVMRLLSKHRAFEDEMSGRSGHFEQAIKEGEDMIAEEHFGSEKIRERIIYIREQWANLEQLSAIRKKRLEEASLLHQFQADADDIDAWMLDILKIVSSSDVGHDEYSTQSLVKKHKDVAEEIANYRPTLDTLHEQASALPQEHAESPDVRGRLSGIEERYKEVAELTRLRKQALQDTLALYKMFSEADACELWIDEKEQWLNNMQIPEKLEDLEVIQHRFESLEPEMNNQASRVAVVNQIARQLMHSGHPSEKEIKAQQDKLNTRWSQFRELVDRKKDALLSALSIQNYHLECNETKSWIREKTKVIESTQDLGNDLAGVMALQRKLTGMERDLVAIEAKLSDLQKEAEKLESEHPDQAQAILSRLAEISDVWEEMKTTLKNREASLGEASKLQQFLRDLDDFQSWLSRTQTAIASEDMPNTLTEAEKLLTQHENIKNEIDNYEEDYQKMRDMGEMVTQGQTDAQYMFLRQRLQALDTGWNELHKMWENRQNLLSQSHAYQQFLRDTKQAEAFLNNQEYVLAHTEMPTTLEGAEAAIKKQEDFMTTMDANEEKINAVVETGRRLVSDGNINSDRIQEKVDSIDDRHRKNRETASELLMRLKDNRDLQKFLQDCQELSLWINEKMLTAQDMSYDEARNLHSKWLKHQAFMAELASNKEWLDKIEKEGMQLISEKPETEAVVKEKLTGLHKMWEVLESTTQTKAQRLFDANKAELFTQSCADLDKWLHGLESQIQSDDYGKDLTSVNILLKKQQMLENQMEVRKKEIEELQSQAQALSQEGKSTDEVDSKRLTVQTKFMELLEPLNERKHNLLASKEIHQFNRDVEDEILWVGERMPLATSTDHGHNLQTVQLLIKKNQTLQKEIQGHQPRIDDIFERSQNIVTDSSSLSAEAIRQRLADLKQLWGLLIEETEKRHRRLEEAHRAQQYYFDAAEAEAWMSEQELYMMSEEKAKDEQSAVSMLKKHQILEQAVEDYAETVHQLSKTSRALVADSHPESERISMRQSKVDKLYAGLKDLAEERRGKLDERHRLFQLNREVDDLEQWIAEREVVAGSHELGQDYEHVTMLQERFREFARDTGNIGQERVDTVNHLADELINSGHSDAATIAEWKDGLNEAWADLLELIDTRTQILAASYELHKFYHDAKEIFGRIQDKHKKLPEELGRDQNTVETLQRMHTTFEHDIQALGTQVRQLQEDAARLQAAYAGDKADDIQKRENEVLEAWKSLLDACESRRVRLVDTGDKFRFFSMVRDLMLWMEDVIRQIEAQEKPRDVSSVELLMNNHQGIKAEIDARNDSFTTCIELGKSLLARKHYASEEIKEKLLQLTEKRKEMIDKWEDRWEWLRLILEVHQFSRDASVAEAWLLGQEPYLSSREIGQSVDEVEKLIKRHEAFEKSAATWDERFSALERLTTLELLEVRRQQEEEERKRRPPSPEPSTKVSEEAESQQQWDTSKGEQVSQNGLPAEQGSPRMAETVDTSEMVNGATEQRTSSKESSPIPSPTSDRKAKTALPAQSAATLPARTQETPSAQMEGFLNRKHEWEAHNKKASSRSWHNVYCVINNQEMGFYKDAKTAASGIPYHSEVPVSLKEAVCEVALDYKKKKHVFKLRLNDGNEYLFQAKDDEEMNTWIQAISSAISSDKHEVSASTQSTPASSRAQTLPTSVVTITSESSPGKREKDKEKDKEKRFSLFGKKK
Chain of UniProt Q8NBP0 (Q8NBP0 whole entry): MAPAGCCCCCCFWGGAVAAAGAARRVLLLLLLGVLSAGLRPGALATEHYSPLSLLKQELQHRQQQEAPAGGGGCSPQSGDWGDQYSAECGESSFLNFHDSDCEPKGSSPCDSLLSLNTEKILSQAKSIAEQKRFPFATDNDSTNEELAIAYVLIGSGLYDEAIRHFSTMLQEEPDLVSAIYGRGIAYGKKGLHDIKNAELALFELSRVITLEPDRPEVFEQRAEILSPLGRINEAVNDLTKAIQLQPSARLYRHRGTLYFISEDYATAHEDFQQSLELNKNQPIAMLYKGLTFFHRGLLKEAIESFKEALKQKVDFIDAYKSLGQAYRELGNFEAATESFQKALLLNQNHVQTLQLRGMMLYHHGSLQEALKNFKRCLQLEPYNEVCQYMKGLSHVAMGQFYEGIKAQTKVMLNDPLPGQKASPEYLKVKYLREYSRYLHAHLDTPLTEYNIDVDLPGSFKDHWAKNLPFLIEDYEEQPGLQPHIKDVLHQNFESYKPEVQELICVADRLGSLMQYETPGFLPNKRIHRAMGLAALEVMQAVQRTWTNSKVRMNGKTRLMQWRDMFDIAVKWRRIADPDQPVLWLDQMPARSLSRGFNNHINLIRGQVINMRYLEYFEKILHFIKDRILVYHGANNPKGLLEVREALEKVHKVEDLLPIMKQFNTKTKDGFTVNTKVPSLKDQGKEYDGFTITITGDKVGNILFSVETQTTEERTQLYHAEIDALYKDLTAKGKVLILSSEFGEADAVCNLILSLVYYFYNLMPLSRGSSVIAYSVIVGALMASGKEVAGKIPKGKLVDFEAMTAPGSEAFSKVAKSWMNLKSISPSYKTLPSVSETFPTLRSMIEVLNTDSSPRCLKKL
Chain of UniProt P50990 (P50990 2-548 limits assumed, one chain of several): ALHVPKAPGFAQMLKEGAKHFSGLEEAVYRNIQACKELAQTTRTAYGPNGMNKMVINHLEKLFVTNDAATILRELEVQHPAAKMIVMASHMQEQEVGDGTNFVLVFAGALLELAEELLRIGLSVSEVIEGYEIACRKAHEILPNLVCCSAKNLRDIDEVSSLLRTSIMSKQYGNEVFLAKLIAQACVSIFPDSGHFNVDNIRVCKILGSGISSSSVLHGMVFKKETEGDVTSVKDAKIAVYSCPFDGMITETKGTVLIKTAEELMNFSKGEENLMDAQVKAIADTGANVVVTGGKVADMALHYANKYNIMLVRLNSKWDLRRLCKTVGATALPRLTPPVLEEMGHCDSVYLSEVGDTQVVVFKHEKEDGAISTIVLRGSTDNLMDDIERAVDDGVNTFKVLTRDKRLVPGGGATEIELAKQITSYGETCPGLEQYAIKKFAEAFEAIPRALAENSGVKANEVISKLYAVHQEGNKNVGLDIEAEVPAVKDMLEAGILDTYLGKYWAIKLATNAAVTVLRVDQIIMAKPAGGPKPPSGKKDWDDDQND

## Avaren-Fc (AvFc) (Fc fusion)
Agrin (human)
  Percentage of Total Spectra (%): 0.21%
Attractin (human)
  Percentage of Total Spectra (%): 0.084%
CD109 antigen (human)
  Percentage of Total Spectra (%): 0.13%
[1]
  Percentage of Total Spectra (%): 0.2%
[2]
  Percentage of Total Spectra (%): 0.021%
[3]
  Percentage of Total Spectra (%): 0.11%
[4]
  Percentage of Total Spectra (%): 0.014%
Erlin-1 (human)
  Percentage of Total Spectra (%): 0.11%
Erlin-2 (human)
  Percentage of Total Spectra (%): 0.15%
[5]
  Percentage of Total Spectra (%): 0.07%
Integrin alpha-1 (human)
  Percentage of Total Spectra (%): 0.021%
Integrin alpha-2 (human)
  Percentage of Total Spectra (%): 0.11%
Integrin alpha-3 (human)
  Percentage of Total Spectra (%): 0.15%
Integrin alpha-5 (human)
  Percentage of Total Spectra (%): 0.035%
Integrin alpha-V (human)
  Percentage of Total Spectra (%): 0.15%
Integrin beta-5 (human)
  Percentage of Total Spectra (%): 0.11%
[6]
  Percentage of Total Spectra (%): 0.17%
[7]
  Percentage of Total Spectra (%): 0.41%
[8]
  Percentage of Total Spectra (%): 0.056%
[9]
  Percentage of Total Spectra (%): 0.091%
Mucin-5AC (human)
  Percentage of Total Spectra (%): 0.21%
Mucin-5B (human)
  Percentage of Total Spectra (%): 0.14%
[10]
  Percentage of Total Spectra (%): 0.07%
[11]
  Percentage of Total Spectra (%): 0.014%
Plexin-B2 (human)
  Percentage of Total Spectra (%): 0.12%
[12]
  Percentage of Total Spectra (%): 0.056%
[13]
  Percentage of Total Spectra (%): 0.12%
[14]
  Percentage of Total Spectra (%): 0.056%
[15]
  Percentage of Total Spectra (%): 0.056%
[16]
  Percentage of Total Spectra (%): 0.12%
[17]
  Percentage of Total Spectra (%): 0.11%
[18]
  Percentage of Total Spectra (%): 0.091%
[19]
  Percentage of Total Spectra (%): 0.13%
[20]
  Percentage of Total Spectra (%): 0.13%
[21]
  Percentage of Total Spectra (%): 0.16%
[22]
  Percentage of Total Spectra (%): 0.11%
[23]
  Percentage of Total Spectra (%): 0.056%
[24]
  Percentage of Total Spectra (%): 0.11%
[25]
  Percentage of Total Spectra (%): 0.07%
